target: tetramethylrhodamine isothiocyanate-labeled actin (UniProt P68139); experiment: optical trap

| Substance | step duration (τon) [ms] |
| --- | --- |
| heterodimeric heavy meromyosin with one wild-type head and one E470A head (from UniProt P10587;P02607) (complex) | 106 |
| single-headed subfragment-1 with neonatal epitope tag at its COOH terminus (from UniProt P10587;P02607) (complex) | 189 |
| wild-type smooth muscle heavy meromyosin (from UniProt P10587;P02607) (complex) | 104 |
